B1: Merlin (Homo sapiens), P35240-3 (parent)
chain: MAGAIASRMSFSSLKRKQPKTFTVRIVTMDAEMEFNCEMKWKGKDLFDLVCRTLGLRETWFFGLQYTIKDTVAWLKMDKKVLDHDVSKEEPVTFHFLAKFYPENAEEELVQEITQHLFFLQVKKQILDEKIYCPPEASVLLASYAVQAKYGDYDPSVHKRGFLAQEELLPKRVINLYQMTPEMWEERITAWYAEHRGRARDEAEMEYLKIAQDLEMYGVNYFAIRNKKGTELLLGVDALGLHIYDPENRLTPKISFPWNEIRNISYSDKEFTIKPLDKKIDVFKFNSSKLRVNKLILQLCIGNHDLFMRRRKADSLEVQQMKAQAREEKARKQMERQRLAREKQMREEAERTRDELERRLLQMKEEATMANEALMRSEETADLLAEKAQITEEEAKLLAQKAAEAEQEMQRIKATAIRTEEEKRLMEQKVLEAEVLALKMAEESERRAKEADQLKQDLQEAREAERRAKQKLLEIATKPTYPPMNPIPAPLPPDIPSFNLIGDSLSFDFKDTDMKRLSMEIEKEKVEYMEKSKHLQEQLNELKTEIEALKLKERETALDILHNENSDRGGSSKHNTIKKPQAQGRRPICI
partner: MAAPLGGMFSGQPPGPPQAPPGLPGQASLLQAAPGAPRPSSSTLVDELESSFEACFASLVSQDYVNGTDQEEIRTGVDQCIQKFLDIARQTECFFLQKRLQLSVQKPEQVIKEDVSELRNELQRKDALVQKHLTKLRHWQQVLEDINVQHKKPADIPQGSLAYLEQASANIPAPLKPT
B2: Merlin (Homo sapiens), P35240-1 (parent)
chain: MAGAIASRMSFSSLKRKQPKTFTVRIVTMDAEMEFNCEMKWKGKDLFDLVCRTLGLRETWFFGLQYTIKDTVAWLKMDKKVLDHDVSKEEPVTFHFLAKFYPENAEEELVQEITQHLFFLQVKKQILDEKIYCPPEASVLLASYAVQAKYGDYDPSVHKRGFLAQEELLPKRVINLYQMTPEMWEERITAWYAEHRGRARDEAEMEYLKIAQDLEMYGVNYFAIRNKKGTELLLGVDALGLHIYDPENRLTPKISFPWNEIRNISYSDKEFTIKPLDKKIDVFKFNSSKLRVNKLILQLCIGNHDLFMRRRKADSLEVQQMKAQAREEKARKQMERQRLAREKQMREEAERTRDELERRLLQMKEEATMANEALMRSEETADLLAEKAQITEEEAKLLAQKAAEAEQEMQRIKATAIRTEEEKRLMEQKVLEAEVLALKMAEESERRAKEADQLKQDLQEAREAERRAKQKLLEIATKPTYPPMNPIPAPLPPDIPSFNLIGDSLSFDFKDTDMKRLSMEIEKEKVEYMEKSKHLQEQLNELKTEIEALKLKERETALDILHNENSDRGGSSKHNTIKKLTLQSAKSRVAFFEEL
partner: B1 partner

Variants of: B1
Details: with med28_human MED28, Q9H204
S518A was tested, and the “effect of a mutation on the interaction” value was “increasing interaction”.

Variants of: B2
Details: with med28_human MED28, Q9H204
With S518A the “effect of a mutation on the interaction” value was “increasing interaction”.

Source: IntAct's records for PubMed 15467741
